Here are results for two molecules from patent US20150140573A1.

Data set [1] addresses barley limit dextrinase present in barley malt extract (barley (Hordeum vulgare subsp. vulgare)). Briefly: cell-based or functional assay. Conditions: scale: fraction of the rate of the uninhibited sample.
In data set [2] the target is recombinant barley limit dextrinase inhibitor.

Molecule “recombinant barley limit dextrinase inhibitor” gave a rate of o-NP release from compound 6 in barley malt extract (absorbance at 430 nm), with and without added limit dextrinase inhibitor in data set [1] of 0.1.

B1: barley limit dextrinase present in barley malt extract (protein)
chain: MAVGETGASVSAAEAEAEATQAFMPDARAYWVTSDLIAWNVGELEAQSVCLYASRAAAMSLSPSNGGIQGYDSKVELQPESAGLPETVTQKFPFISSYRAFKVPSSVDVASLVKCQLVVASFGADGKHVDVTGLQLPGVLDDMFAYTGPLGAVFSEDSVSLHLWAPTAQGVSVCFFDGPAGPALETVQLKESNGVWSVTGPREWENRYYLYEVDVYHPTKAQVLKCLAGDPYARSLSANGARTWLVDINNETLKPASWDELADEKPKLDSFSDITIYELHIRDFSAHDGTVDSDSRGGFRAFAYQASAGMEHLRKLSDAGLTHVHLLPSFHFAGVDDIKSNWKFVDECELATFPPGSDMQQAAVVAIQEEDPYNWGYNPVLWGVPKGSYASDPDGPSRIIEYRQMVQALNRIGLRVVMDVVYNHLDSSGPCGISSVLDKIVPGYYVRRDTNGQIENSAAMNNTASEHFMVDRLIVDDLLNWAVNYKVDGFRFDLMGHIMKRTMVTKSALQSLTTDAHGVDGSKIYLYGEGWDFAEVARNQRGINGSQLNMSGTGIGSFNDRIRDAINGGNPFGNPLQQGFNTGLFLEPNGFYQGNEADTRRSLATYADQIQIGLAGNLRDYVLISHTGEAKKGSEIHTFDGLPVGYTASPIETINYVSAHDNETLFDVISVKTPMILSVDERCRINHLASSMMALSQGIPFFHAGDEILRSKSIDRDSYNSGDWFNKLDFTYETNNWGVGLPPSEKNEDNWPLMKPRLENPSFKPAKGHILAALDSFVDILKIRYSSPLFRLSTANDIKQRVRFHNTGPSLVPGVIVMGIEDARGESPEMAQLDTNFSYVVTVFNVCPHEVSMDIPALASMGFELHPVQVNSSDTLVRKSAYEAATGRFTVPGRTVSVFVEPRC
On to B1, for which the “hydrolysis of compound 19 in barley malt extract after 1 h at 60 C (UPLC, fluorescence detection), with and without added LDI” value in data set [2] was “When LDI was added to the extract, almost all activity of limit dextrinase was inhibited, and only negligible amounts of the compound 19 was hydrolyzed”.
